{
  "source": "patent US20110033518A1",
  "key": {"[1]": {"biological_target": "human ABCA1 transporter on stably transfected HeLa cells (human) (UniProt O95477)", "sequence (O95477 whole entry)": "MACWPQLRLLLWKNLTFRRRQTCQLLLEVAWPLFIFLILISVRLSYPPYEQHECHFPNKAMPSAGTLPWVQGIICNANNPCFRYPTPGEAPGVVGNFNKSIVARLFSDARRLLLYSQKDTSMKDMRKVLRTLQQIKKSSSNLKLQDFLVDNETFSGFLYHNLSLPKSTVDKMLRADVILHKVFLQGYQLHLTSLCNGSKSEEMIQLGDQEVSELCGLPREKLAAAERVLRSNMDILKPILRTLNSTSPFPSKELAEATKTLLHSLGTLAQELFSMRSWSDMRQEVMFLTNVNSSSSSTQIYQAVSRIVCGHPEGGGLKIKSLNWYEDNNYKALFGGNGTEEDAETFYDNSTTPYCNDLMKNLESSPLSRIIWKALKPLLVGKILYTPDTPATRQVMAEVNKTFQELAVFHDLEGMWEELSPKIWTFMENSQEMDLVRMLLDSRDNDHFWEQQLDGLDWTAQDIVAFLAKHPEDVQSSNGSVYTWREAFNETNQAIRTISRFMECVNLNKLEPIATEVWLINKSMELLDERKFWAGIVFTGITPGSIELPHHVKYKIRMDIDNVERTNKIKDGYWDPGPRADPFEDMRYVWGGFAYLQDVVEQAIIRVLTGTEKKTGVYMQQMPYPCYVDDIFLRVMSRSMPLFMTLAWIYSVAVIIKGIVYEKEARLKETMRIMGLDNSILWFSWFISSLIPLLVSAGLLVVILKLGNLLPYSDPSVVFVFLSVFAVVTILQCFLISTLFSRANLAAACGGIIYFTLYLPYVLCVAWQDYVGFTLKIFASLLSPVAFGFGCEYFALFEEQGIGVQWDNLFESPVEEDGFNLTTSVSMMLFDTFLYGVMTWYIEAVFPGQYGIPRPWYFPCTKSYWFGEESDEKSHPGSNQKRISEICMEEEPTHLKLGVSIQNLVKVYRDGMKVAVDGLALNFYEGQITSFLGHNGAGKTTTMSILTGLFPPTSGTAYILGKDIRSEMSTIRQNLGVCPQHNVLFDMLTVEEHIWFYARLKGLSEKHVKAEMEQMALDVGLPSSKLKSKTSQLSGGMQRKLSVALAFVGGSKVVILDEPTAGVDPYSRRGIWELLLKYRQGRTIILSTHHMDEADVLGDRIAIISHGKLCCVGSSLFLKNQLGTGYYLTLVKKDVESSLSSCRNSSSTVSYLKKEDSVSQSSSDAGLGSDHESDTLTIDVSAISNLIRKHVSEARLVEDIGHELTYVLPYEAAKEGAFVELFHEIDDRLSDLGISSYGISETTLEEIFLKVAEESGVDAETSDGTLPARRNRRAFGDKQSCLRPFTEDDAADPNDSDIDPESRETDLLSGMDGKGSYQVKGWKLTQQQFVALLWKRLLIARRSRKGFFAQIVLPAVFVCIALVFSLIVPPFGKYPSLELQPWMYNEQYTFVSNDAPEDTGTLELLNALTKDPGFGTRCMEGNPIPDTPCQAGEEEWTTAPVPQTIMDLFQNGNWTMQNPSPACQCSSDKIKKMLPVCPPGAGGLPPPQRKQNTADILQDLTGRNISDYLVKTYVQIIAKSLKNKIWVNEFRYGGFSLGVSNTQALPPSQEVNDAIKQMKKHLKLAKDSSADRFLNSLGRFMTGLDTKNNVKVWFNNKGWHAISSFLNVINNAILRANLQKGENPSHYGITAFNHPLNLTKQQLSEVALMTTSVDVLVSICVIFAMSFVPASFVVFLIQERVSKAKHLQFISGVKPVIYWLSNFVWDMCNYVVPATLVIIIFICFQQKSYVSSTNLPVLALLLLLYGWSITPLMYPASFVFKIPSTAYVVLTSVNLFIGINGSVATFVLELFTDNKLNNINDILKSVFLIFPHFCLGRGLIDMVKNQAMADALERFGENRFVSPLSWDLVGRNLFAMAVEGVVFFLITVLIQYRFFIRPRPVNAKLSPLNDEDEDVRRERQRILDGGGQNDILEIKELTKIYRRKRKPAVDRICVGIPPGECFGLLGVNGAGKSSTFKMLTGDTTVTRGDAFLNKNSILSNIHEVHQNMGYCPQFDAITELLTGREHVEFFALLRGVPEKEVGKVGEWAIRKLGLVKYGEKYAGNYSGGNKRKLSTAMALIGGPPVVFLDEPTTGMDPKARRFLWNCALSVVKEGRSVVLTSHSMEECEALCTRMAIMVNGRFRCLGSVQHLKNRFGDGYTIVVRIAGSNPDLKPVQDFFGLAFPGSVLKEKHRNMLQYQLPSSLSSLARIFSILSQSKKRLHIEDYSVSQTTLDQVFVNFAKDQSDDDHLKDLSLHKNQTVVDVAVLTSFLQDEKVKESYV", "assay": "cell-based or functional assay"}, "[2]": {"biological_target": "human ABCA1 transporter on stably transfected HeLa cells (human) (UniProt O95477)", "assay": "direct binding of 125I-L-37pA at 1 µg/ml to ABCA1-transfected HeLa cells, 1 hour, 4 C", "design": "unit not given here"}, "[3]": {"biological_target": "human ABCA1 transporter on stably transfected HeLa cells (human) (UniProt O95477)", "assay": "two-step sequential competitive binding on ABCA1-transfected HeLa cells, competitor at 8 µM, tracer 125I-L-37pA"}},
  "note": "Where “and” joins values, the source holds several entries; their conditions need not be identical. Equal entries are not always repeated.",
  "data": [
    {"binder": "DWLKAFYDKVAEKLKEAFPDWLKAFYDKVAEKLKEAF", "note": "[L-37pA peptide]", "values": [
      {"measurement": "cholesterol and phospholipid efflux, ABCA1 cells against control cells, 18 hours", "setting": "[1]", "value": "2 fold and 4 fold"},
      {"measurement": "concentration at which lipid efflux began to show saturation", "setting": "[1]", "value": 2, "unit": "µM"},
      {"measurement": "cell-bound radiolabeled peptide in the absence of a competitor", "setting": "[2]", "value": 35},
      {"measurement": "percent of labeled L-37pA binding blocked", "setting": "[3]", "value": 40, "unit": "%"}
    ]}
  ]
}
